Data taken from US12085574B2, “Method and means for diagnosing and treating allergy” (BIOMEDICAL INTERNATIONAL R+D GMBH, priority 2014, dated 2024).

Key:
[1] = Iron-binding capacity of lipocalin allergens (quenching of autofluorescence); settings: 2 μM allergen, 50UM siderophore (2,3, Dihydroxybenzoic Acid), iron III 0 to 50 μM; excitation/emission 280 and 340
Method: In this assay, 2 μM of allergen (in the example BLG) and 50UM of siderophores like 2,3, Dihydroxybenzoic Acid are incubated with increasing concentrations of iron III (Fe3+) ranging from 0 to 50 μM (x-axis in FIG. 5). Quenching of autofluorescence is measured at excitation and emission wavelengths of […] respectively in endpoint mode (y-axis in FIG. 5).

[2] = system: PMA-activated PBMCs; experiment: Cytokine content (IL13, IFN-γ) of supernatants of PMA-activated PBMCs stimulated with apo-/holo-allergens (ELISA); assay type: cell-based, human; settings: PMA-activated PBMCs incubated for 18-24h; allergen 100 μg/ml with or without 10 μM catechol and 10 μM iron
Method: To PBMCs (0.5 Mio/test) a final concentration of 0.75 ng/ml PMA, 100 μg/ml apo-allergen (BLG, Alt a 1 and Bet v 1) with or without 10 μM catechol (Sigma) and 10 μM iron was added. For control purposes also tested without allergen or PMA. PMA each substance was determined in pre-experiments and considered concentration was optimal when cells were slightly downregulating surface CD4+ expression (7). After 18-24h supernatants were collected and stored at −80° ° C. until further analysis.
LCN2 and the cytokine levels of IL13 and IFNγ were detected with commercially available kits according to the manufacturers' protocol. Sera were diluted 1:100 before determining LCN2-levels, whereas supernatants of 18-24h stimulation were used undiluted. Sensitivity of LCN2 assay is about 75 pg/ml and kits were purchased from R&D Systems (Minneapolis, MN, USA), whereas ELISAs for human IL13 and IFNγ were from ebioscience (Santa Clara, CA, USA), both assays having a reported sensitivity of 4 pg/ml.

[3] = system: CD3+ cells of PMA-activated PBMCs; experiment: CD4/CD8 expression and survival of PMA-activated PBMCs incubated with apo- or holo-lipocalin allergens (FACS); assay type: cell-based, human; settings: PBMCs pre-activated 24 h with PMA 0.75 ng/ml; allergen 100 μg/ml; holo = with catechol and iron; gated for CD3, 10000 CD3 cells recorded
Method: Cells were then stained for CD3-APC, CD8-PE, CD4-PE-CY7, 7AAD and Annexin V-FITC, gated for CD3 and analyzed by a FACS Canto II. Data acquisition was stopped when 10000 CD3 cells were recorded.
Apo-allergens were incubated with equimolar concentration of iron (ammonium iron (III) citrate, Sigma) and three-fold molar concentration of catechol, since 3 catechols are necessary for hexadental binding of iron in the LCN2-pocket against deionized water. Recombinant Bet v1a (Biomay, Vienna, Austria) was used as purchased
Blood was mixed with equal volumes of PBS containing 2% FCS before applying onto 10 ml Ficoll-Paque PLUS (GE Healthcare, Uppsala, Sweden), centrifugation at 400 g for 30 min without brake and washing the cells twice with 0,89% sodium chloride solution. Cells were then diluted to a concentration of 1Mio cells/ml in RPMI medium containing 10% FCS. Throughout the study FCS from the same lot was always used.
To PBMCs (0.5 Mio/test) a final concentration of 0.75 ng/ml PMA, 100 μg/ml apo-allergen (BLG, Alt a 1 and Bet v 1) with or without 10 μM catechol (Sigma) and 10 μM iron was added. For control purposes also tested without allergen or PMA. PMA each substance was determined in pre-experiments and considered concentration was optimal when cells were slightly downregulating surface CD4+ expression (7). […]

Molecule: BLG: commercially available bovine beta-lactoglobulin, lipocalin allergen
- Autofluorescence of the cavity (iron-binding) [1]: quenched

B1: apo-Alt a 1: recombinant Alternaria alternata allergen Alt a 1, dialyzed against DFO, iron-free (protein, UniProt P79085 19-157, looked up)
Major allergen Alt a 1: APLESRQDTASCPVTTEGDYVWKISEFYGRKPEGTYYNSLGFNIKATNGGTLDFTCSAQADKLEDHKWYSCGENSFMDFSFDSDRSGLLLKQKVSDDITYVATATLPNYCRAGGNGPKDFVCQGVADAYITLVTLPKSS
- Th2-cytokines released upon stimulation (IL13 and IFN-γ analyzed) [2]: released

B2: holo-Alt a 1: recombinant Alt a 1 incubated with equimolar iron and three-fold molar catechol (protein, UniProt P79085 19-157, looked up)
Major allergen Alt a 1: APLESRQDTASCPVTTEGDYVWKISEFYGRKPEGTYYNSLGFNIKATNGGTLDFTCSAQADKLEDHKWYSCGENSFMDFSFDSDRSGLLLKQKVSDDITYVATATLPNYCRAGGNGPKDFVCQGVADAYITLVTLPKSS
modifications: iron and catechol bound
notes: recombinant Alt a 1 incubated with equimolar iron and three-fold molar catechol
- Th2-cytokines released upon stimulation (IL13 and IFN-γ analyzed) [2]: not

B3: apoBetv1: recombinant Bet v 1a birch allergen, used as purchased, without siderophore-iron (protein, UniProt P15494 2-160, looked up)
Major pollen allergen Bet v …: GVFNYETETTSVIPAARLFKAFILDGDNLFPKVAPQAISSVENIEGNGGPGTIKKISFPEGFPFKYVKDRVDEVDHTNFKYNYSVIEGGPIGDTLEKISNEIKIVATPDGGSILKISNKYHTKGDHEVKAEQVKASKEMGETLLRAVESYLLAHSDAYN
- CD4 expression and survival [3]: increase
- Th2-cytokines released upon stimulation (IL13 and IFN-γ analyzed) [2]: released

B4: holoBetv1: recombinant Bet v 1a incubated with equimolar iron and three-fold molar catechol (protein, UniProt P15494 2-160, looked up)
Major pollen allergen Bet v …: GVFNYETETTSVIPAARLFKAFILDGDNLFPKVAPQAISSVENIEGNGGPGTIKKISFPEGFPFKYVKDRVDEVDHTNFKYNYSVIEGGPIGDTLEKISNEIKIVATPDGGSILKISNKYHTKGDHEVKAEQVKASKEMGETLLRAVESYLLAHSDAYN
modifications: iron and catechol complex
notes: recombinant Bet v 1a incubated with equimolar iron and three-fold molar catechol
- CD4 expression and survival [3]: sharp contrast
- Th2-cytokines released upon stimulation (IL13 and IFN-γ analyzed) [2]: not
